# Results from patent US20250188154A1.
# Legend:
# rhFcγRI/CD64 (human) = rhFcγRI/CD64 (human) (UniProt P12314); assay: SPR, DH1042 captured on CM5, receptor titrated
# rhFcγRIIIA/CD16a (human) = rhFcγRIIIA/CD16a (human) (UniProt P08637); assay: SPR, DH1042 captured on CM5, receptor titrated
# [1] = target: Cent B, centromere B (human) (UniProt P07199); assay: AtheNA Luminex, mAb at 25 (mg/mL [sic]); <100 negative
# Histone (human) [2] = assay: as above
# Jo 1 (human) [3] = target: Jo 1 (human) (UniProt P12081); assay: as above
# [4] = target: RNP, ribonucleoprotein (human) (UniProt Q96LT9); assay: as above
# [5] = target: SSA, Sjogren's syndrome antigen A (human); assay: as above
# [6] = target: SSB, Sjogren's syndrome antigen B (human) (UniProt P05455); assay: as above
# [7] = target: Scl 70, scleroderma 70 (human) (UniProt P11387); assay: as above
# [8] = target: Sm, small nuclear riboproteins (human); assay: as above
# [9] = target: Cent B, centromere B (human) (UniProt P07199); assay: AtheNA Luminex, mAb at 50 (mg/mL [sic]); <100 negative
# Histone (human) [10] = assay: as above
# Jo 1 (human) [11] = target: Jo 1 (human) (UniProt P12081); assay: as above
# [12] = target: RNP, ribonucleoprotein (human) (UniProt Q96LT9); assay: as above
# [13] = target: SSA, Sjogren's syndrome antigen A (human); assay: as above
# [14] = target: SSB, Sjogren's syndrome antigen B (human) (UniProt P05455); assay: as above
# [15] = target: Scl 70, scleroderma 70 (human) (UniProt P11387); assay: as above
# [16] = target: Sm, small nuclear riboproteins (human); assay: as above
# [17] = target: Cent B, centromere B (human) (UniProt P07199); assay: AtheNA Luminex, mAb at 12.5 (mg/mL [sic]); <100 negative
# Histone (human) [18] = assay: as above
# Jo 1 (human) [19] = target: Jo 1 (human) (UniProt P12081); assay: as above
# [20] = target: RNP, ribonucleoprotein (human) (UniProt Q96LT9); assay: as above
# [21] = target: SSA, Sjogren's syndrome antigen A (human); assay: as above
# [22] = target: SSB, Sjogren's syndrome antigen B (human) (UniProt P05455); assay: as above
# [23] = target: Scl 70, scleroderma 70 (human) (UniProt P11387); assay: as above
# [24] = target: Sm, small nuclear riboproteins (human); assay: as above
# [25] = target: Cent B, centromere B (human) (UniProt P07199); assay: AtheNA Luminex, mAb at 6.25 (mg/mL [sic]); <100 negative
# Histone (human) [26] = assay: as above
# Jo 1 (human) [27] = target: Jo 1 (human) (UniProt P12081); assay: as above
# [28] = target: RNP, ribonucleoprotein (human) (UniProt Q96LT9); assay: as above
# [29] = target: SSA, Sjogren's syndrome antigen A (human); assay: as above
# [30] = target: SSB, Sjogren's syndrome antigen B (human) (UniProt P05455); assay: as above
# [31] = target: Scl 70, scleroderma 70 (human) (UniProt P11387); assay: as above
# [32] = target: Sm, small nuclear riboproteins (human); assay: as above
# [33] = target: SARS-CoV-2 Spike-2P stabilized S ectodomain trimer (SARS-CoV-2) (UniProt P0DTC2); assay: SPR
# SARS-CoV-2 spike-HexaPro = assay: SPR
# [34] = target: SARS-CoV live virus spike (SARS-CoV) (UniProt P59594); assay: cell-based or functional assay
# [35] = target: bat CoV RsSHC014 live virus spike (bat coronavirus RsSHC014); assay: cell-based or functional assay
# [36] = target: bat CoV WIV-1 live virus spike (bat coronavirus WIV-1); assay: cell-based or functional assay
# Chain of UniProt P07199 (P07199 2-599): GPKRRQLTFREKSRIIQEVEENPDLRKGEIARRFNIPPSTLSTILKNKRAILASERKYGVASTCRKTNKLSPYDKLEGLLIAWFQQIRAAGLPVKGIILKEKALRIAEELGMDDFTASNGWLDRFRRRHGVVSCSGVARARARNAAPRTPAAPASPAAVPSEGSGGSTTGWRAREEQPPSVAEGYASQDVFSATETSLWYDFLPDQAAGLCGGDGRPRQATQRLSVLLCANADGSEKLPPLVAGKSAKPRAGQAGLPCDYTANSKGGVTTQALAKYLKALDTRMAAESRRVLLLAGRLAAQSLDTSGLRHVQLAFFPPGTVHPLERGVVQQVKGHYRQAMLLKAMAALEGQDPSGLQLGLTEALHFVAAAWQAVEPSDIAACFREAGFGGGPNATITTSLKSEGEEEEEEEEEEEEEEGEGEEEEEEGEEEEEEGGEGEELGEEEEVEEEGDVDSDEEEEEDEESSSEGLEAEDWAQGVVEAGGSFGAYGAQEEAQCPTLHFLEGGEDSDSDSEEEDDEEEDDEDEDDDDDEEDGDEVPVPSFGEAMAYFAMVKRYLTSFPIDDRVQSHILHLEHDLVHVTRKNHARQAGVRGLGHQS
# Chain of UniProt P12081 (P12081 2-509): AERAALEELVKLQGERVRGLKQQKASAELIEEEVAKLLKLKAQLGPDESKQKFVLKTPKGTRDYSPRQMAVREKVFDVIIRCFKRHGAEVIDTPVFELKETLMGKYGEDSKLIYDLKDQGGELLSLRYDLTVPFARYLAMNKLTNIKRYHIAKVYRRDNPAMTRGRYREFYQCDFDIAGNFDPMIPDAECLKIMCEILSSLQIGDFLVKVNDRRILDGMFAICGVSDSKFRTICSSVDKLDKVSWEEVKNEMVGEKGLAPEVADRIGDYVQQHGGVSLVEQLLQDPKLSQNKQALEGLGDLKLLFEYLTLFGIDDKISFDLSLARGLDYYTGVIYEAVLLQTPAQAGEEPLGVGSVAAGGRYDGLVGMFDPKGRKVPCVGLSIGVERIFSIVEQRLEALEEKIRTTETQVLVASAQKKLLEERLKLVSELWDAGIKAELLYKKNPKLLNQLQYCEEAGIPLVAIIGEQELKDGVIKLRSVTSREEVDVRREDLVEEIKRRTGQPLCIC
# Chain of UniProt P05455 (P05455 whole entry): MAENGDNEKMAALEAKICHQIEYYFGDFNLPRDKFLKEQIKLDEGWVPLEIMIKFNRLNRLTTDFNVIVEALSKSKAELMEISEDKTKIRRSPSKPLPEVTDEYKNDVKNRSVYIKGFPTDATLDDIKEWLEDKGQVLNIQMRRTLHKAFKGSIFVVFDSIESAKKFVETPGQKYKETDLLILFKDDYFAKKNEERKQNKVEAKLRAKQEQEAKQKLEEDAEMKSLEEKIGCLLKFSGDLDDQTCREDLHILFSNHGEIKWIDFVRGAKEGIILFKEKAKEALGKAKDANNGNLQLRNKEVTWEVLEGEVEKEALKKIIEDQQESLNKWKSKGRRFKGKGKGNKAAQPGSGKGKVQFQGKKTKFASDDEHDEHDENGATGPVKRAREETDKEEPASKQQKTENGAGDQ
# Chain of UniProt P11387 (P11387 2-765): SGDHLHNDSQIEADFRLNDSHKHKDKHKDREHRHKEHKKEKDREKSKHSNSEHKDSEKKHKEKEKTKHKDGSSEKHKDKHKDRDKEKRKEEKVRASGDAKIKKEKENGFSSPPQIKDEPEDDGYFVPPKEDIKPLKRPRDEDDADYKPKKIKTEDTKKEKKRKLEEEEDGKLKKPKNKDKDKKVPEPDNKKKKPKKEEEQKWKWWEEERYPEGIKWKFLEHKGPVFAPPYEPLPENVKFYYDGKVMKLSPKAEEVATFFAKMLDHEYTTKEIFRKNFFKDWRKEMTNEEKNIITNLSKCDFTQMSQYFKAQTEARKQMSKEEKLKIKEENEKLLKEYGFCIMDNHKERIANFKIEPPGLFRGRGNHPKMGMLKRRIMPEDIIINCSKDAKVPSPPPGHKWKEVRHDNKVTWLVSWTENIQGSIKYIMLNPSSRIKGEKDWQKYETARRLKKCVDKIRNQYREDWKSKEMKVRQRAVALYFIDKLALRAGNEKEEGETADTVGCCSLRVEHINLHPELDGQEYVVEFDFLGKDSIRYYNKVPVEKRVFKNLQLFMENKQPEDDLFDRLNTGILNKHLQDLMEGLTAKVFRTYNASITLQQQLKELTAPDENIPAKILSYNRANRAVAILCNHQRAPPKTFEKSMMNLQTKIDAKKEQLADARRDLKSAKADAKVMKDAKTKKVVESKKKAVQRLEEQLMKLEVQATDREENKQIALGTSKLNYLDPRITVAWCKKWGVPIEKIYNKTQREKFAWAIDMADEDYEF
# Chain of UniProt Q96LT9 (Q96LT9 whole entry): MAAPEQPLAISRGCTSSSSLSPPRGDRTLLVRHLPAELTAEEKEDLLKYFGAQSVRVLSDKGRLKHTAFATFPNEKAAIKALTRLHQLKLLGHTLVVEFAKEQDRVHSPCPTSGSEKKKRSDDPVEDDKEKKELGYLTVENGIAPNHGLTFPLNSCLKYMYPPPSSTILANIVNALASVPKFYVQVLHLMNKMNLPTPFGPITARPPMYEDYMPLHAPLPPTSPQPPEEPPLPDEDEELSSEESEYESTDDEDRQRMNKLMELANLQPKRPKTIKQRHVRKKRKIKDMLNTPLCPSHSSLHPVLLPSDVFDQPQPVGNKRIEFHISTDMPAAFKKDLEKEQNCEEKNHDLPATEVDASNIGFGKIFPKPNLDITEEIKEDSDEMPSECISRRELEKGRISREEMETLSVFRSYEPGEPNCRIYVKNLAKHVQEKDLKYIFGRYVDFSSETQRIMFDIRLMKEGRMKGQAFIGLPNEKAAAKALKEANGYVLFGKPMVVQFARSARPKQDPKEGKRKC
# Chain of UniProt P12314 (P12314 16-288 limits assumed): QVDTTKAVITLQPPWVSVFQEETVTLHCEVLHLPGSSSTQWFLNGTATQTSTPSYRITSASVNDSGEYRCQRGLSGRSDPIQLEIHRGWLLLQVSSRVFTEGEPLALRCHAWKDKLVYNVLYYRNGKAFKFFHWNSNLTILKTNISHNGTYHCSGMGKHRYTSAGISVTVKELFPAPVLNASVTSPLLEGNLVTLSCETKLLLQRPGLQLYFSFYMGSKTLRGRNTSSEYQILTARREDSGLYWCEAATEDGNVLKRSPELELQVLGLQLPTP
# Chain of UniProt P08637 (P08637 17-208 limits assumed): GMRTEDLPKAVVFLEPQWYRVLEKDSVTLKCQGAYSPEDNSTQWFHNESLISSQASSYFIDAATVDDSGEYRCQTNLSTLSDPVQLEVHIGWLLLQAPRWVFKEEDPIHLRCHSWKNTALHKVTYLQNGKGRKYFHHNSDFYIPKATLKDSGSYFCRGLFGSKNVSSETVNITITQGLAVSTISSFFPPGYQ
substance,measurement,setting,value
DH1042 (antibody),Kd,rhFcγRI/CD64 (human),414000 nM
same,Kd,rhFcγRIIIA/CD16a (human),406 nM
same,AtheNA value,[1],26
same,AtheNA value,Histone (human) [2],6
same,AtheNA value,Jo 1 (human) [3],4
same,AtheNA value,[4],4
same,AtheNA value,[5],2
same,AtheNA value,[6],5
same,AtheNA value,[7],2
same,AtheNA value,[8],2
same,AtheNA value,[9],56
same,AtheNA value,Histone (human) [10],9
same,AtheNA value,Jo 1 (human) [11],2
same,AtheNA value,[12],6
same,AtheNA value,[13],2
same,AtheNA value,[14],4
same,AtheNA value,[15],1
same,AtheNA value,[16],3
same,AtheNA value,[17],12
same,AtheNA value,Histone (human) [18],3
same,AtheNA value,Jo 1 (human) [19],1
same,AtheNA value,[20],0
same,AtheNA value,[21],3
same,AtheNA value,[22],2
same,AtheNA value,[23],0
same,AtheNA value,[24],1
same,AtheNA value,[25],6
same,AtheNA value,Histone (human) [26],2
same,AtheNA value,Jo 1 (human) [27],2
same,AtheNA value,[28],1
same,AtheNA value,[29],1
same,AtheNA value,[30],3
same,AtheNA value,[31],1
same,AtheNA value,[32],3
DH1047,Kd,[33],< 0.1 nM
same,Kd,SARS-CoV-2 spike-HexaPro,0.08 nM
DH1047 (antibody),live virus neutralization IC50,[34],0.028 µg/mL
same,live virus neutralization IC50,[35],0.2 µg/mL
same,live virus neutralization IC50,[36],0.191 µg/mL
DH1042,Kd,[33],0.6 nM
same,Kd,SARS-CoV-2 spike-HexaPro,0.8 nM
